# Laboratory results: patent US20050037969A1 (ARBOR VITA, published 2005)
# Ends that are not written are not given here. * marks the point of attachment. Biotin = O=C1N[C@H]2[C@H](CS[C@H]2CCCCC(=O)*)N1
# B1: Mannose receptor C-terminal peptide AA31L (peptide)
# peptide: Biotin-GTSDMKDLVGNIEQNEHSVI
# notes: Only the last four residues are seen in the excerpts
# B2: CD114 (G-CSFR) C-terminal peptide AA27L (peptide)
# peptide: Biotin-LNFPLLQGIRVHGMEALGSF
# notes: as for B1
# B3: CC CKR-3 C-terminal peptide AA43L (peptide)
# peptide: Biotin-LERTSSVSPSTAEPELSIVF
# notes: as for B1
# Biological target: T1, X11β PDZ-GST fusion protein (Rattus norvegicus (Rat), UniProt O35431 560-745)
# T1 construct: Order of GST and PDZ part and limits not seen in the excerpts
# T1 chain: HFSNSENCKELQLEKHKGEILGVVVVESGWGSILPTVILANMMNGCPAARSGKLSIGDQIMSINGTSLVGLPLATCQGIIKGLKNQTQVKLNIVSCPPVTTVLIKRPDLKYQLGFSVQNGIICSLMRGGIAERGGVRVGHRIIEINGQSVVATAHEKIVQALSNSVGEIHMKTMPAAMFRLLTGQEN
# Assay: A/G assays
row,Binder,binding result
1,B1,no binding
2,B2,no binding
3,B3,no binding
4,"Biotin-ISKATPALPTVSISSSAEV (also called AA1L-R) [Clasp-1 C-terminal peptide AA1L, biotinylated]",no binding
5,"Biotin-ENLAPVTTFGKTNGYIA (also called CD148 (DEP-1)) [CD148 C-terminal peptide AA19L, biotinylated]",no binding

# Biological target: T2, K316 PDZ-GST fusion protein (Homo sapiens (Human), UniProt Q14CM0 72-159)
# T2 construct: Order of GST and PDZ part and limits not seen in the excerpts
# T2 sequence (Q14CM0 72-159 limits assumed): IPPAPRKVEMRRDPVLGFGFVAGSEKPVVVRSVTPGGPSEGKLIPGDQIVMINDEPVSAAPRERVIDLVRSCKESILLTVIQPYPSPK
# Assay: A/G assays
row,Binder,binding result
1,B1,no binding
2,B2,no binding
3,B3,no binding
4,"Biotin-ISKATPALPTVSISSSAEV (also called AA1L-R) [Clasp-1 C-terminal peptide AA1L, biotinylated]",no binding
5,"Biotin-ENLAPVTTFGKTNGYIA (also called CD148 (DEP-1)) [CD148 C-terminal peptide AA19L, biotinylated]",no binding

# Biological target: T3, GST-RGS12 PDZ domain fusion protein (human, UniProt O14924 17-85)
# T3 construct: also called human regulator of G-protein signalling 12; not shown: glutathione S-transferase encoded by vector pGEX-3X (Pharmacia)
# T3 sequence: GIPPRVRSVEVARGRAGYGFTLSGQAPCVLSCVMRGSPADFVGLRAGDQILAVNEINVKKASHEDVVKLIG
# Assay: A/G assays
row,Binder,binding result
1,B1,no binding
2,B2,no binding
3,B3,no binding
4,"Biotin-ISKATPALPTVSISSSAEV (also called AA1L-R) [Clasp-1 C-terminal peptide AA1L, biotinylated]",no binding
5,"Biotin-ENLAPVTTFGKTNGYIA (also called CD148 (DEP-1)) [CD148 C-terminal peptide AA19L, biotinylated]",no binding

# Biological target: T4, TAX-IP2L PDZ-GST fusion protein (Homo sapiens (Human), UniProt Q8TF64 107-197)
# T4 construct: Order of GST and PDZ part and limits not seen in the excerpts
# T4 sequence: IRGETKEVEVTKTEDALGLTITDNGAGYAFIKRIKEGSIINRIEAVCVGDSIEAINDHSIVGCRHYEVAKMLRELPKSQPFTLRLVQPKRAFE
# Assay: A/G assays
row,Binder,binding result
1,B1,no binding
2,B2,no binding
3,B3,no binding
4,"Biotin-ISKATPALPTVSISSSAEV (also called AA1L-R) [Clasp-1 C-terminal peptide AA1L, biotinylated]",no binding
5,"Biotin-ENLAPVTTFGKTNGYIA (also called CD148 (DEP-1)) [CD148 C-terminal peptide AA19L, biotinylated]",no binding

# Biological target: T5, GST-MPP1 PDZ domain fusion protein (Homo sapiens (Human), UniProt Q00013 67-152)
# T5 construct: also called p55; 55 Kd erythrocyte membrane protein; not shown: glutathione S-transferase encoded by vector pGEX-3X (Pharmacia)
# T5 sequence: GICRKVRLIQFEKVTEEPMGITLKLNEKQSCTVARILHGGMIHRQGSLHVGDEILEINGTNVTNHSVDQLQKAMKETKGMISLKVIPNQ
# Assay: A/G assays
row,Binder,binding result
1,B1,no binding
2,B2,no binding
3,B3,no binding
4,"Biotin-ISKATPALPTVSISSSAEV (also called AA1L-R) [Clasp-1 C-terminal peptide AA1L, biotinylated]",no binding
5,"Biotin-ENLAPVTTFGKTNGYIA (also called CD148 (DEP-1)) [CD148 C-terminal peptide AA19L, biotinylated]",no binding

# Biological target: T6, GST-KIAA0303 PDZ domain fusion protein (Homo sapiens (Human), UniProt O15021 1138-1228)
# T6 construct: also called K303; not shown: glutathione S-transferase encoded by vector pGEX-3X (Pharmacia)
# T6 sequence: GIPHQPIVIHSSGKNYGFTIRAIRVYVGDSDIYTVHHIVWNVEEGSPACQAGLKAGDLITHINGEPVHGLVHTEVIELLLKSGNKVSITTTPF
# Assay: A/G assays
row,Binder,binding result
1,B1,no binding
2,B2,no binding
3,B3,no binding
4,"Biotin-ISKATPALPTVSISSSAEV (also called AA1L-R) [Clasp-1 C-terminal peptide AA1L, biotinylated]",no binding
5,"Biotin-ENLAPVTTFGKTNGYIA (also called CD148 (DEP-1)) [CD148 C-terminal peptide AA19L, biotinylated]",no binding

# Biological target: T7, SP short PDZ-GST fusion protein (Homo sapiens (Human), UniProt O43464 350-435)
# T7 construct: The label SP short is not explained in the excerpts
# T7 sequence: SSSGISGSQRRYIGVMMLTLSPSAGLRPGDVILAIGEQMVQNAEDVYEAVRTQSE
# Assay: A/G assays
row,Binder,binding result
1,B1,no binding
2,B2,no binding
3,B3,no binding
4,"Biotin-ISKATPALPTVSISSSAEV (also called AA1L-R) [Clasp-1 C-terminal peptide AA1L, biotinylated]",no binding
5,"Biotin-ENLAPVTTFGKTNGYIA (also called CD148 (DEP-1)) [CD148 C-terminal peptide AA19L, biotinylated]",no binding

# Biological target: T8, GST-TAX-IP2 PDZ domain fusion protein (human, UniProt O14908 129-216)
# T8 construct: also called TAX-1P2; TAX2; not shown: glutathione S-transferase encoded by vector pGEX-3X (Pharmacia)
# T8 chain: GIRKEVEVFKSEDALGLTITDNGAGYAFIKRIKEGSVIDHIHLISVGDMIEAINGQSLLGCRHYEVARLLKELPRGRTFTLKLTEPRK
# Assay: A/G assays
row,Binder,binding result
1,B1,no binding
2,B2,no binding
3,B3,no binding
4,"Biotin-ISKATPALPTVSISSSAEV (also called AA1L-R) [Clasp-1 C-terminal peptide AA1L, biotinylated]",no binding
5,"Biotin-ENLAPVTTFGKTNGYIA (also called CD148 (DEP-1)) [CD148 C-terminal peptide AA19L, biotinylated]",no binding

# Biological target: T9, GST-AF6 PDZ domain fusion protein (Homo sapiens (Human), UniProt P55196 1001-1093)
# T9 construct: also called af-6 protein; not shown: glutathione S-transferase encoded by vector pGEX-3X (Pharmacia)
# T9 sequence: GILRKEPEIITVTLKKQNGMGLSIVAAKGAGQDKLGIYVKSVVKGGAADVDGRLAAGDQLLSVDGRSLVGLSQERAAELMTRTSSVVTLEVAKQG
# Assay: A/G assays
row,Binder,binding result
1,B1,no binding
2,B2,no binding
3,B3,no binding
4,"Biotin-ISKATPALPTVSISSSAEV (also called AA1L-R) [Clasp-1 C-terminal peptide AA1L, biotinylated]",no binding
5,"Biotin-ENLAPVTTFGKTNGYIA (also called CD148 (DEP-1)) [CD148 C-terminal peptide AA19L, biotinylated]",no binding

# Biological target: T10, KIAA0807 (PDZ domain)-GST fusion protein (human, UniProt Q6P0Q8 1104-1192)
# T10 construct: also called K807; KIAA807; not shown: glutathione S-transferase encoded by vector pGEX-3X (Pharmacia)
# T10 sequence: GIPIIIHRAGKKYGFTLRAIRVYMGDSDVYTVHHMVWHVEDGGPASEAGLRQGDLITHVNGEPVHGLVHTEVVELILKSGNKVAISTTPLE
# Assay: A/G assays
row,Binder,binding result
1,B1,no binding
2,B2,no binding
3,B3,no binding
4,"Biotin-ISKATPALPTVSISSSAEV (also called AA1L-R) [Clasp-1 C-terminal peptide AA1L, biotinylated]",no binding
5,"Biotin-ENLAPVTTFGKTNGYIA (also called CD148 (DEP-1)) [CD148 C-terminal peptide AA19L, biotinylated]",no binding

# Biological target: T11, GST-DVL1 PDZ domain fusion protein (human, UniProt O14640 247-339)
# T11 construct: also called human dishevelled segment polarity protein homolog; not shown: glutathione S-transferase encoded by vector pGEX-3X (Pharmacia)
# T11 sequence: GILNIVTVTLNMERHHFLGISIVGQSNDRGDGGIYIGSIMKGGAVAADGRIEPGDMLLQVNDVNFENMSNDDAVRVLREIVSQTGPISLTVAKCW
# Assay: A/G assays
row,Binder,binding result
1,B1,no binding
2,B2,no binding
3,B3,no binding
4,"Biotin-ISKATPALPTVSISSSAEV (also called AA1L-R) [Clasp-1 C-terminal peptide AA1L, biotinylated]",no binding
5,"Biotin-ENLAPVTTFGKTNGYIA (also called CD148 (DEP-1)) [CD148 C-terminal peptide AA19L, biotinylated]",no binding

# Biological target: T12, GST-TAX-IP43 PDZ domain fusion protein (human, UniProt Q13884 109-180)
# T12 construct: also called TAX43; not shown: glutathione S-transferase encoded by vector pGEX-3X (Pharmacia)
# T12 sequence: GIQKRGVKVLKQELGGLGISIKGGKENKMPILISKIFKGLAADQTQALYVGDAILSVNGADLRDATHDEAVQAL
# Assay: A/G assays
row,Binder,binding result
1,B1,no binding
2,B2,no binding
3,B3,no binding
4,"Biotin-ISKATPALPTVSISSSAEV (also called AA1L-R) [Clasp-1 C-terminal peptide AA1L, biotinylated]",no binding
5,"Biotin-ENLAPVTTFGKTNGYIA (also called CD148 (DEP-1)) [CD148 C-terminal peptide AA19L, biotinylated]",no binding

# Biological target: T13, GST-PTN-4 PDZ domain fusion protein (Homo sapiens (Human), UniProt P29074 517-605)
# T13 construct: also called protein-tyrosine phosphatase meg1; not shown: glutathione S-transferase encoded by vector pGEX-3X (Pharmacia)
# T13 sequence: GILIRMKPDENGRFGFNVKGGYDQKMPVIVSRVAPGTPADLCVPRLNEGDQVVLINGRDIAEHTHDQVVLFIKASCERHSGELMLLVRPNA
# Assay: A/G assays
row,Binder,binding result
1,B1,no binding
2,B2,no binding
3,B3,no binding
4,"Biotin-ISKATPALPTVSISSSAEV (also called AA1L-R) [Clasp-1 C-terminal peptide AA1L, biotinylated]",no binding
5,"Biotin-ENLAPVTTFGKTNGYIA (also called CD148 (DEP-1)) [CD148 C-terminal peptide AA19L, biotinylated]",no binding

# Biological target: T14, GST-TIAM1 PDZ domain fusion protein (Homo sapiens (Human), UniProt Q13009 845-931)
# T14 construct: also called TLAM1; T-lymphoma invasion and metastasis inducing protein 1; not shown: glutathione S-transferase encoded by vector pGEX-3X (Pharmacia)
# T14 sequence (Q13009 other isoform, or with tags, fused parts or gaps): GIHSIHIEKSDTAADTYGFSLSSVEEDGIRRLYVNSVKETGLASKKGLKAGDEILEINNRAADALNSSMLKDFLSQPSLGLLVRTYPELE
# Assay: A/G assays
row,Binder,binding result
1,B1,no binding
2,B2,no binding
3,B3,no binding
4,"Biotin-ISKATPALPTVSISSSAEV (also called AA1L-R) [Clasp-1 C-terminal peptide AA1L, biotinylated]",no binding
5,"Biotin-ENLAPVTTFGKTNGYIA (also called CD148 (DEP-1)) [CD148 C-terminal peptide AA19L, biotinylated]",no binding

# Biological target: T15, GEF PDZ-GST fusion protein (Homo sapiens (Human), UniProt Q8TEU7 293-400)
# T15 construct: The label GEF is not explained in the excerpts
# T15 sequence: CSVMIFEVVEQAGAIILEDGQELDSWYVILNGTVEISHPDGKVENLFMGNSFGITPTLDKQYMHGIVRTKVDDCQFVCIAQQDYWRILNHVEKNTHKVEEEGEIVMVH
# Assay: A/G assays
row,Binder,binding result
1,B1,no binding
2,B2,no binding
3,B3,no binding
4,"Biotin-ISKATPALPTVSISSSAEV (also called AA1L-R) [Clasp-1 C-terminal peptide AA1L, biotinylated]",no binding
5,"Biotin-ENLAPVTTFGKTNGYIA (also called CD148 (DEP-1)) [CD148 C-terminal peptide AA19L, biotinylated]",no binding

# Biological target: T16, TAX-IP33 PDZ-GST fusion protein (Homo sapiens (Human), UniProt O14910 103-193)
# T16 construct: Order of GST and PDZ part and limits not seen in the excerpts
# T16 sequence: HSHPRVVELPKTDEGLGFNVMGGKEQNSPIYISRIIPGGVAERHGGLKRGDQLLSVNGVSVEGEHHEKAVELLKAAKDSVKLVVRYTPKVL
# Assay: A/G assays
row,Binder,binding result
1,B1,no binding
2,B2,no binding
3,B3,no binding
4,"Biotin-ISKATPALPTVSISSSAEV (also called AA1L-R) [Clasp-1 C-terminal peptide AA1L, biotinylated]",no binding
5,"Biotin-ENLAPVTTFGKTNGYIA (also called CD148 (DEP-1)) [CD148 C-terminal peptide AA19L, biotinylated]",no binding
